We go through three molecules from patent publication US20220002427A1 (ENGMAB SARL, published 2022).

Residue numbers refer to the chain shown, from its start. Several values for one entry are separate records, joined by “and”; a condition that tells them apart may be missing. Equal entries are not always repeated.

For orientation: Kd means the constant that tells how readily two partners part at equilibrium. By koff is commonly meant the first-order rate constant of dissociation. For orientation: kon means the rate constant with which the complex forms. The term EC50 denotes the midpoint of the concentration-response curve.

Assay [1] addresses T1, recombinant cynomolgus BCMA Fc(kih) (cynomolgus, UniProt A0A2K5UD97 4-51). As to the kind of experiment: ratio of SPR KD values (KD cynomolgus BCMA / KD human BCMA), reference human BCMA Fc(kih). As for the experimental part:
(§1) The avidity of the interaction between anti-BCMA antibodies and recombinant BCMA Fc(kih) (human and cynomolgus) was determined. Biotinylated recombinant human and cynomolgus BCMA Fc(kih) were directly coupled on a SA chip following instructions (Biacore, Freiburg/Germany). The immobilization level ranged from 200 to 700 RU. […] The dissociation was monitored for 180 seconds. Bulk refractive index differences were corrected for by subtracting the response obtained on the reference flow cell. Here, the anti-BCMA antibodies were flown over an empty surface previously activated and deactivated as described in the standard amine coupling kit. Apparent kinetic constants were derived using the Biacore T200 Evaluation Software (vAA, Biacore AB, Uppsala/Sweden), to fit rate equations for 1:1 Langmuir binding by numerical integration, despite the bivalency of the interaction for comparison purposes. The affinity of the interaction between anti-BCMA antibodies and recombinant human BCMA Fc(kih) was also determined. Anti-human Fab antibody (GE Healthcare) was directly coupled on a CMS chip at pH 5.0 using the standard amine coupling kit (Biacore, Freiburg/Germany). The immobilization level was about 6500 RU. […] The dissociation was monitored for 120 seconds. Bulk refractive index differences were corrected for by subtracting the response obtained on reference flow cell. […] Kinetic constants were derived using the Biacore T100 Evaluation Software (vAA, Biacore AB, Uppsala/Sweden), to fit rate equations for 1:1 Langmuir binding by numerical integration (Table 4).
Based on the affinity values described in Example 2, the affinity of anti-BCMA antibodies to human BCMA vs. cynomolgus BCMA were compared and cyno/hu affinity ratio (gap) values were calculated (Table 5).

The target in assay [2] is T1, recombinant cynomolgus BCMA Fc(kih). Description: SPR (Biacore T200), IgG captured via anti-human Fab, BCMA Fc(kih) as analyte, 1:1 Langmuir fit. As for the experimental part:
as §1, with “Assessment of binding of anti-BCMA antibodies to recombinant BCMA by surface plasmon resonance (SPR) as follow. […] The avidity” for “The avidity”
Background: SPR reads the build-up and loss of mass on a sensor chip optically.

In assay [3] the target is T2, recombinant human BCMA Fc(kih) (human, UniProt Q02223 4-53, site-specifically biotinylated at the C-terminal avi-tag ; Biotin on the avi-tag at the C-terminus of the Fc knob chain (tag and Fc left out).).
T2 construct: Knobs-into-holes heterodimer carrying one BCMA ectodomain; also called huBCMA Fc(kih); huBCMA; not shown: human IgG1 hinge-Fc knob chain with C-terminal avi-tag, and the unfused Fc hole chain
T2 chain: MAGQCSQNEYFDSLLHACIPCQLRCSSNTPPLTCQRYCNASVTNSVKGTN
Described as above. As for the experimental part: as §1, with “Assessment of binding of anti-BCMA antibodies to recombinant BCMA by surface plasmon resonance (SPR) as follow. […] The avidity” for “The avidity”

Assay [4] deals with T1, recombinant cynomolgus BCMA Fc(kih). As to the kind of experiment: SPR one-shot kinetics (ProteOn XPR36), IgG captured from HEK293 supernatant via anti-human F(ab)2, BCMA as analyte. As for the experimental part:
(§2) All experiments were performed at 25° C. using PBST as running buffer (10 mM PBS, pH 7.4 and 0.005% (v/v) Tween®20). A ProteOn XPR36 biosensor equipped with GLC and GLM sensor chips and coupling reagents (10 mM sodium acetate, pH 4.5, sulfo-N-hydroxysuccinimide, 1-ethyl-3-(3-dimethylaminopropyl)-carbodiimide hydrochloride [EDC] and ethanolamine) was purchased from BioRad Inc. (Hercules, Calif.). Immobilizations were performed at 30 μl/min. on a GLM chip. pAb (goat) anti hu IgG, F(ab)2 specific Ab (Jackson) was coupled in vertical direction using a standard amine-coupling procedure: all six ligand channels were activated for 5 min with a mixture of EDC (200 mM) and sulfo-NHS (50 mM). Immediately after the surfaces were activated, pAb (goat) anti hu IgG, F(ab)2 specific antibody (50 μg/ml, 10 mM sodium acetate, pH 5) was injected across all six channels for 5 min. Finally, channels were blocked with a 5 min injection of 1 M ethanolamine-HCl (pH 8.5). […] One-shot kinetic measurements were performed by injection of a dilution series of human, cyno and mouse BCMA (50, 10, 2, 0.4, 0.08, 0 nM, 50 μl/min) for 3 min along the vertical channels. Dissociation was monitored for 5 min Kinetic data were analyzed in ProteOn Manager v. 2.1. Processing of the reaction spot data involved applying an interspot-reference and a double-reference step using an inline buffer blank (Myszka, 1999). The processed data from replicate one-shot injections were fit to a simple 1:1 Langmuir binding model without mass transport (O'Shannessy et al., 1993).

Assay [5] has as its target T2, recombinant human BCMA Fc(kih). The assay is described as above. As to the method:
as §2

For assay [6], the target named is T3, murine BCMA extracellular domain, monomeric Fc-fusion (murine, UniProt O88472 1-49, site-specifically biotinylated at the C-terminal avi-tag).
T3 construct: extracellular domain; also called muBCMA; mouse BCMA; not shown: hinge and Fc of human IgG1, knob chain; avi-tag; unfused human IgG1 Fc portion (hole chain)
T3 sequence (O88472 whole entry, the tested form may be a part): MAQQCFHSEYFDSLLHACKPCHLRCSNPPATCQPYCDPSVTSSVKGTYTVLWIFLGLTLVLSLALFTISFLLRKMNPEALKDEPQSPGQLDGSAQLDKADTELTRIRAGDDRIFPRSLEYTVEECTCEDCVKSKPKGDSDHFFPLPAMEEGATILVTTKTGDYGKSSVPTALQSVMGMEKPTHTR
Described as above. As to the method: as §2

Another assay has as its target T4, human BCMA on cells (human, UniProt Q02223 1-184).
T4 construct: whole, on cells; also called huBCMA on HEK cells; HEK-huBCMA cells
T4 sequence (looked up): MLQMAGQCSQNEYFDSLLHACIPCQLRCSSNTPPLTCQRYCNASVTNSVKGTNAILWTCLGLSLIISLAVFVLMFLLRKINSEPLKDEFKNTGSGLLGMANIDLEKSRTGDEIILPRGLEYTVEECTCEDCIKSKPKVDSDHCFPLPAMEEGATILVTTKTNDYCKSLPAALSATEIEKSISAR
As to the kind of experiment: flow cytometry on HEK-huBCMA cells, PE anti-human Fc detection. In general terms: A flow cytometer gives signals particle by particle.

T1 sequence (A0A2K5UD97 entry or part of it): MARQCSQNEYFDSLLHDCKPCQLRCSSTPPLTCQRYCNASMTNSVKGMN

B1: Mab 33 IgG (antibody, V domains shown)
VH: EVQLLESGGGLVQPGGSLRLSCAASGFTFYTNAMGWVRQAPGKGLEWVSAINRFGGSTYYADSVKGRFTISRDNSKNTLYLQMNSLRAEDTAVYYCAKVLGWFDYWGQGTLVTVSS
VL: EIVLTQSPGTLSLSPGERATLSCRASQSVSEYYLAWYQQKPGQAPRLLIEHASTRATGIPDRFSGSGSGTDFTLTISRLEPEDFAVYYCQQYGYPPDFTFGQGTKVEIK
On to B1, for which the Affinity cyno/hu gap in assay [1] was found to be 4.2 fold. Also, the Kd in assay [2] is 0.739 nM; in assay [3], 0.178 nM; in assay [4], 0.034 nM; in assay [5] it was 0.017 nM; in assay [6], 0.49 nM. Further, the figures for the koff in assay [2] and in assay [3] were 9.76e-05 s⁻¹ and 3.55e-05 s⁻¹, respectively. In addition, the kon in assay [2] came to 132000 M⁻¹ s⁻¹; in assay [3] it was 200000 M⁻¹ s⁻¹. The EC50 with human BCMA on cells was 1.18 nM and 0.17 µg/mL.

B2: Mab 27 IgG (antibody, V domains shown)
VH: EVQLLESGGGLVQPGGSLRLSCAASGFTFSSAPMGWVRQAPGKGLEWVSAISYIGHTYYADSVKGRFTISRDNSKNTLYLQMNSLRAEDTAVYYCAKVLGWFDYWGQGTLVTVSS
VL: B1 VL
Take B2: the Affinity cyno/hu gap in assay [1] came out at 12.7 fold. Moreover, the Kd in assay [2] turned out to be 2.11 nM; in assay [3] it was 0.165 nM; in assay [4], 0.1 nM; in assay [5], 0.00039 nM; in assay [6] it was 0.97 nM. The koff came to 0.000455 s⁻¹ in assay [2] and 5.93e-05 s⁻¹ in assay [3]. In addition, the kon was 216000 M⁻¹ s⁻¹ in assay [2] and 359000 M⁻¹ s⁻¹ in assay [3]. Besides, the EC50 in the assay with human BCMA on cells is 10.6 nM and 1.52 µg/mL.

B3: Mab 42 IgG (antibody, V domains shown)
VH: B1 VH with Y30S, T31D, N52S, R53G, F54P, G56S
VL: B1 VL with E31D, Y32E, A35S, E50H, H51S, T75A
notes: also called antibody 42; clone 42
For B3, in assay [1], the Affinity cyno/hu gap is 1.7 fold. The Kd was determined as 0.641 nM in assay [2]; 0.371 nM in assay [3]; 0.39 nM in assay [4]; 0.23 nM in assay [5]; 2.5 nM in assay [6]. The figures for the koff in assay [2] and in assay [3] were 0.000453 s⁻¹ and 0.000298 s⁻¹, respectively. For the same molecule, the kon in assay [2] came out at 707000 M⁻¹ s⁻¹; in assay [3], 803000 M⁻¹ s⁻¹. Moreover, the EC50 with human BCMA on cells is 2.1 nM and 0.3 µg/mL.
